The nature of experiment [1]: Whole cell TAL activity temperature profile. Type of experiment: cell-based, E. coli. How it is done:
A fermentation run was performed as in Example 6 for strain DPD5154. The TAL activity of the strain was measured in a cell-based assay at different temperatures. The fermentation cell paste was resuspended in water, and diluted to OD600 of 3.0. Formation of pHCA was monitored in a 1.0 ml reaction in a UV grade disposable cuvette (VWR) for three minutes at λ315 nm, 35° C. with 0.03 OD600 of DPD5154 cells, in 100 mM CAPS, pH10 with 10 mM tyrosine. The pH value of the CAPS buffer was adjusted according to the corresponding assay temperature, which was varied from 25° C. to 60° C. The TAL activity was calculated using the following equation based on the assumption that 1.0 OD600 of E. coli cells is equivalent to 0.33 g/L dry cell weight (dcw). The extinction coefficient of pHCA at pH 10 at 315 nm had previously been experimentally determined to be 16,800 M^−1 cm^−1. One unit of enzyme activity is defined as the formation of 1.0 μM of pHCA product per minute reaction. The total TAL Activity (μM/min)=Initial Slope (/min)×[1,000,000 (μM/M)/16,800 M^−1 cm^−1]=Slope (/min)×59.52 (μM)

The nature of experiment [2]: TAL activity temperature profile of purified enzyme. Type of experiment: biochemical. On the procedure: Six grams of cell pellet, from the 10 liter fermentation of DPD5154 was resuspended in 6.0 mL Buffer A (10 mM Tris-HCl, pH 8.0, 200 μM EDTA) containing one EDTA-free protease inhibitor tablet (Roche Biosciences, Palo Alto, Calif.), 1.0 μg/ml Leupeptin, 1.0 μg/ml Pepstatin, 40 μg/ml Bestatin 5.0 mM CA. Cells were lysed by two passes through a French Pressure Cell at 20,000 PSI, and clarified by centrifugation at 12,000×g for 20 minutes. To the clarified supernatant, 1.0% streptomycin sulfate was added, and the suspension was gently mixed for 15 minutes at 4° C. and then clarified by centrifugation at 12,000×g for 20 minutes. The supernatant was heated at 60° C. for 20 min, and centrifuged again at 12,000×g for 20 minutes. This clarified crude extract sample was loaded onto a Q Sepharose FF 16/10 anion exchange column equilibrated with buffer A in an Akta FPLC system (Amersham, GE Healthcare, Piscataway, N.J.), and eluted with 10 column volumes of gradient from Buffer A, to Buffer A containing 1.0 M NaCl. Five ml fractions were collected from the column and assayed for TAL activity as described above. The fractions containing TAL activity were pooled. To the pooled anion exchange fractions containing TAL activity, saturated (NH4)2SO4 (4.0M) was added to final 30% saturation. After centrifugation at 12,000 g for 20 minutes, additional saturated (NH4)2SO4 (4.0M) was added to the supernatant fraction to a final 50% saturation. The mixture was centrifuged again at 12,000 g for 20 minutes, and the supernatant was removed. […] The purity of the PcTAL protein in the fractions was analyzed by SDS-PAGE. The fractions containing TAL activity with high purity as determined by SDS-PAGE were pooled. […]
The in vitro enzymatic assay using the purified PcTAL was performed as a comparison to the whole cell assay. The temperature profile of the purified PcTAL enzyme (from Example 6) was measured at temperatures varying from 25° C. to 60° C. in 100 mM CAPS buffer, pH 10, containing 1.0 mM tyrosine. […]

B1: PcTAL: thermostable tyrosine ammonia lyase (PAL/TAL) enzyme from Phanerochaete chrysosporium, SEQ ID NO:1 (protein, listed as Phanerochaete chrysosporium)
chain: MPSRIDYYTSSGNGYAQSRKSSAIYPASASTGHAAPSTERKPELLDKFVEAYDELQSYREGKPVIVDGHNLSIPAVAATARFGAAVVLDENPETHERVLQSRRVIVDKVSTQRSVYGVSTGFGGSADTRTSDPLQLGHALLQHQHVGVLPTQTESPLPALPLGDPLATTSMPEAWVRGAILIRMNSLIRGHSGVRWELIEKMGELLRENITPLVPLRGSISASGDLSPLSYIAGTLIGSPAIRVFDGPASYGARRILPSNIALANHGVAPIPLSSKEHLGILNGTAFSASVGALALNEAVHLSLLAQVCTAMGTEAMIGAVGSFDAFIHDTARPHPGQVEVARNVRTLLEDSQMAVKAEDEVHIAEDEGELRQDRYPLRTAAQFLGPQIEDILSAHETVTLECNSTTDNPLIDGETGTVHHGGNFQAMAVTNAMEKTRLAIHHIGKLLFAQATELINPMMNRGLPPNLAATDPSHNYFAKGVDIHLAAYVGELGFLASPVSSHIQSAEMHNQAVNSLALVSARYTISALDVLSLLTAAYLYVLCQALDLRAMHNDLQSSLSAIVRELLPKHFPSAAKRADALLPILERTIFRALNSSSSADCKARMVSVAASTTTPLVDFLSADAALASELANITAFRTELATRAADALTTLRTQYLEGARGAAPASKYLGKTRPVYEFVRVTLNVPMHGRENLHNFEMGPGVEDGIIGNNISTIYEAIRDGKMQNVVMQLVKSIKA
As for B1, the “activity at 60° C. relative to that at 25° C. in whole cells” value in experiment [1] is listed as “about 6 fold”. Also, in experiment [2] (55° C.), the “TAL activity at 55° C.” value came to 1479 U/g. In experiment [2] (60° C.), the “TAL activity at 60° C.” value came out at 1431 U/g. Moreover, the “maximum activity of purified enzyme relative to that at 25° C.” value in experiment [2] (about 55° C. vs 25° C.) is recorded as “about 3 fold”.

The values are drawn from patent US7572612B2, “Method of production of para-hydroxycinnamic acid using a thermostable TAL enzyme” (E.I. du Pont de Nemours and Company, priority 2006, dated 2009).
